Experimental findings from US20180155451A1 (published 2018) are described below.

Sequences and labels used below:
T1: FcgRIIb (human, UniProt P31994 43-217)
T1 construct: extracellular domain; also called FcγRIIb; not shown: His tag attached to the C terminus
T1 sequence (looked up): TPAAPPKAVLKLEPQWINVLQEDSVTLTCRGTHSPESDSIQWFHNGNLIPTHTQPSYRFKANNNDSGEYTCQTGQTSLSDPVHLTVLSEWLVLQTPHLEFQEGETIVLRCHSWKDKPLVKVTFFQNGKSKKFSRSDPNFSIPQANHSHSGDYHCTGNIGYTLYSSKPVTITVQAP

T2: FcγRIIb extracellular domain with C-terminal His tag (human, UniProt P31994 43-217)
T2 construct: extracellular domain; Soluble receptor expressed in FreeStyle293 cells, used as analyte in Biacore; also called FcgRIIb; CD32B; not shown: His tag at the C terminus
T2 sequence (looked up): T1 sequence (looked up)

B1: H240-Kn061 (Y235L)/H240-Hl071/L73-k0 (antibody, human IgG1, kappa)
heavy 1: QDQLVQSGAEVKKPGASVKVSCKASGFNIKDTYIQWVRQAPGQGLEWMGRIDPLRKQTKYREKFEGRVTITADTSTNTAYMELSSLRSEDTAVYYCVRSGREFDYWGQGTLVTVSSASTKGPSVFPLAPSSKSTSGGTAALGCLVKDYFPEPVTVSWNSGALTSGVHTFPAVLQSSGLYSLSSVVTVPSSSLGTQTYICNVNHKPSNTKVDKKVEPKSCDKTHTCPPCPAPEYLWGPSVFLFPPKPKDTLMISRTPEVTCVVVDVSDEDPEVKFNWYVDGVEVHNAKTKPREEQYNATYRVVSVLTVLHQDWLNGKEYKCKVSNKALPAPIEKTISKAKGQPREPQVCTLPPSRDELTKNQVSLWCLVKGFYPSDIAVEWESNGQPENNYKTTPPVLDSDGSFFLYSKLTVDKSRWQQGNVFSCSVMHEALHNHYTQKSLSLSP
heavy 2: QDQLVQSGAEVKKPGASVKVSCKASGFNIKDTYIQWVRQAPGQGLEWMGRIDPLRKQTKYREKFEGRVTITADTSTNTAYMELSSLRSEDTAVYYCVRSGREFDYWGQGTLVTVSSASTKGPSVFPLAPSSKSTSGGTAALGCLVKDYFPEPVTVSWNSGALTSGVHTFPAVLQSSGLYSLSSVVTVPSSSLGTQTYICNVNHKPSNTKVDKKVEPKSCDKTHTCPPCPAPELLGGPSVFLFPPKPKDTLMISRTPEVTCVVVDVSHEDPEVKFNWYVDGVEVHNAKTKPREEQYNSTYRVVSVLTVLHQDWLNGKEYKCKVSNDALPMPIEETISKAKGQPREPQVYTLPPSRCELTKNQVSLSCAVKGFYPSDIAVEWESNGQPENNYKTTPPVLDSDGSFFLVSKLTVDKSRWQQGNVFSCSVMHEALHNHYTQKSLSLSP
light: DIQMTQSPSSLSASVGDRVTITCRASQDIHKYIAWYQQKPGQAPRLLIQYTSTLQPGVPSRFSGSGSGTDYTFTISSLQPEDIATYYCLQYEQLRTFGGGTKVEIKRTVAAPSVFIFPPSDEQLKSGTASVVCLLNNFYPREAKVQWKVDNALQSGNSQESVTEQDSKDSTYSLSSTLTLSKADYEKHKVYACEVTHQGLSSPVTKSFNRGEC
B2: H240-Kn061 (Y235M)/H240-Hl071/L73-k0 (antibody, human IgG1, kappa)
heavy 1: B1 heavy 1 with L234M
heavy 2: B1 heavy 2
light: B1 light
B3: H240-Kn061 (Y235W)/H240-Hl071/L73-k0 (antibody, human IgG1, kappa)
heavy 1: B1 heavy 1 with L234W
heavy 2: B1 heavy 2
light: B1 light
notes: also called H240-Kn061 Y2351N
B4: H240-Kn061 (Y235N)/H240-Hl071/L73-k0 (antibody, human IgG1, kappa)
heavy 1: B1 heavy 1 with L234N
heavy 2: B1 heavy 2
light: B1 light
B5: H240-Kn061 (Y235T)/H240-Hl071/L73-k0 (antibody, human IgG1, kappa)
heavy 1: B1 heavy 1 with L234T
heavy 2: B1 heavy 2
light: B1 light
B6: GpH7-A5/GpH7-B3 variant G237_11K/GpL16-k0 (antibody, human IgG1, kappa)
heavy 1: not shown
heavy 2: not shown
light: DIVMTQSPLSLPVTPGEPASISCQASESLVHSNRNTYLHWYLQKPGQSPQLLIYKVSNRFSGVPDRFSGSGSGTDFTLKISRVEAEDVGVYYCSQNTHVPPTFGQGTKVEIERTVAAPSVFIFPPSDEQLKSGTASVVCLLNNFYPREAKVQWKVDNALQSGNSQESVTEQDSKDSTYSLSSTLTLSKADYEKHKVYACEVTHQGLSSPVTKSFNRGEC
notes: Heterodimerized anti-glypican-3 IgG1; substitution in only one H chain; also called G237K; He Ab
B7: GpH7-A5/GpH7-B3 variant P238_12R/GpL16-k0 (antibody, human IgG1, kappa)
heavy 1: not shown
heavy 2: not shown
light: B6 light
notes: Heterodimerized anti-glypican-3 IgG1; substitution in only one H chain; also called P238R; He Ab
B8: GpH7-A5/GpH7-B3 variant G237_14T/GpL16-k0 (antibody, human IgG1, kappa)
heavy 1: not shown
heavy 2: not shown
light: B6 light
notes: Heterodimerized anti-glypican-3 IgG1; substitution in only one H chain; also called G237T; He Ab
B9: GpH7-A5/GpH7-B3 variant P238_13S/GpL16-k0 (antibody, human IgG1, kappa)
heavy 1: not shown
heavy 2: not shown
light: B6 light
notes: Heterodimerized anti-glypican-3 IgG1; substitution in only one H chain; also called P238S; He Ab
B10: GpH7-A5/GpH7-B3 variant P238_14T/GpL16-k0 (antibody, human IgG1, kappa)
heavy 1: not shown
heavy 2: not shown
light: B6 light
notes: Heterodimerized anti-glypican-3 IgG1; substitution in only one H chain; also called P238T; He Ab
B11: GpH7-A5/GpH7-B3 variant P238_18N/GpL16-k0 (antibody, human IgG1, kappa)
heavy 1: not shown
heavy 2: not shown
light: B6 light
notes: Heterodimerized anti-glypican-3 IgG1; substitution in only one H chain; also called P238N; He Ab

Changes are numbered by the printed parent chain. Numbers in names are those of the source.

T4 sequence (P08637 17-208 F176V limits assumed): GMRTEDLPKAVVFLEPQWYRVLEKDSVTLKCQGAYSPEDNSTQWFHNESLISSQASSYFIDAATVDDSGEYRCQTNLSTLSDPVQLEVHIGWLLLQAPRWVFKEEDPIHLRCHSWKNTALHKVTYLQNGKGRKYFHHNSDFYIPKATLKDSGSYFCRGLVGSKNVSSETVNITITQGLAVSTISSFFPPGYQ
T5 sequence (P12314 16-292): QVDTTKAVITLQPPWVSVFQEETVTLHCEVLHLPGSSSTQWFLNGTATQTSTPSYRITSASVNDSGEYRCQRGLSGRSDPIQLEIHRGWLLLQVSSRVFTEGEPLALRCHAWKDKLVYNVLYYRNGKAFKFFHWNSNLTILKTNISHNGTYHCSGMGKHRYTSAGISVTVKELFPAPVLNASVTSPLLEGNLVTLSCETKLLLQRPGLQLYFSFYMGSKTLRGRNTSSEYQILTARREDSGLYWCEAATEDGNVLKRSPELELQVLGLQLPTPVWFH

The first experiment has as its target T1, FcgRIIb. The experiment in a line: SPR (Biacore); KD of H240-Kn061/H240-Hl071/L73-k0 divided by KD of the variant. Here is the method: (§1) The antibodies were assessed for the binding to each FcgR. […] The resultant value was defined as relative KD, and used as an assessment indicator.
(§2) Analysis of interaction between obj ective antibody and the FcγR was carried out using Biacore T100 (GE Healthcare), Biacore T200, Biacore A100, and Biacore 4000. HBS-EP+ (GE Healthcare) was used as the running buffer, and the measurement temperature was set to 25° C. Chips produced by immobilizing the antigen peptide by the amine coupling method to a Series S sensor Chip CM5 (GE Healthcare), chips produced by allowing preliminarily biotinylated antigen peptides to interact with and immobilize onto a Series S Sensor Chip SA (certified) (GE Healthcare), chips produced by immobilizing Protein L (ACTIGEN, BioVision) to Series S Sencor Chip CM5 (GE Healthcare), or chips produced by immobilizing Protein A/G (Thermo Scientific) to Series S Sencor Chip CM5 (GE Healthcare) were used. Antibodies of interest were captured onto these chips, and allowed to interact to each FcγR diluted with running buffer.
(In general: In SPR one partner is held on a chip, and binding of the other changes the refractive index at the surface.)
As to B1, the “Relative KD” value turned out to be 0.9.

For the molecule B2, the “Relative KD” value was found to be 0.7.

With B3, the “Relative KD” value is 1.3.

Take B4: the “Relative KD” value is 0.7.

As for B5, the “Relative KD” value is 0.6.

The target of a further experiment is T3, FcgRIIIa F (human, UniProt P08637 17-208).
T3 construct: extracellular domain; also called FcγRIIIa F; 3aF; not shown: His tag attached to the C terminus
T3 sequence (P08637 17-208): as the sequence (P08637 17-208 F176V limits assumed) above, with V160F counted along it
The experiment is described as above. Here is the method:
as §1, §2
For the molecule B1, the “Relative KD” value turned out to be 1.8.

Turning to B2, the “Relative KD” value amounted to 1.7.

For B3, the “Relative KD” value turned out to be 1.1.

Consider B4, for which the “Relative KD” value came out at 1.3.

With B5, the “Relative KD” value stood at 0.9.

The next experiment has as its target T4, FcgRIIIa V (human, UniProt P08637 17-208).
T4 construct: extracellular domain; also called FcγRIIIa V; not shown: His tag attached to the C terminus
The description is as above. The protocol: as §1, §2
As to B1, the “Relative KD” value is 1.5.

Turning to B2, the “Relative KD” value amounted to 1.8.

With B3, the “Relative KD” value worked out at 1.3.

For the molecule B4, the “Relative KD” value is 2.

Regarding B5, the “Relative KD” value is 1.1.

The next experiment has as its target T5, FcγRIa extracellular domain with C-terminal His tag (human, UniProt P12314 16-292).
T5 construct: extracellular domain; Soluble receptor expressed in FreeStyle293 cells, used as analyte in Biacore; also called FcgRI; CD64; not shown: His tag at the C terminus
The experiment in a line: SPR (Biacore); ratio of He/Con_1a (FcγRIa) to He/Con_2b (FcγRIIb) of the same antibody.
In the case of B6, the “Ia/IIb He_1a/2b” value is 7.05.

Consider B7, for which the “Ia/IIb He_1a/2b” value was determined as 1.5.

Regarding B8, the “Ia/IIb He_1a/2b” value came to 1.5.

B9: the “Ia/IIb He_1a/2b” value amounted to 1.37.

In the case of B10, the “Ia/IIb He_1a/2b” value came to 1.8.

Take B11: the “Ia/IIb He_1a/2b” value turned out to be 1.27.

A further experiment concerns the target T5, FcγRIa extracellular domain with …. Put plainly: SPR (Biacore), antibody captured via antigen peptide, FcγR as analyte; binding relative to GpH7-A5/GpH7-B3/GpL16-k0 = 100.
As for B6, the He/Con_1a was 63.3 % of control (GpH7-A5/GpH7-B3/GpL16-k0 = 100).

As for B7, the He/Con_1a is 77.3 % of control (GpH7-A5/GpH7-B3/GpL16-k0 = 100).

For B8, the He/Con_1a is 82.3 % of control (GpH7-A5/GpH7-B3/GpL16-k0 = 100).

For the molecule B9, the He/Con_1a is 96.6 % of control (GpH7-A5/GpH7-B3/GpL16-k0 = 100).

As to B10, the He/Con_1a is 91.1 % of control (GpH7-A5/GpH7-B3/GpL16-k0 = 100).

Consider B11, for which the He/Con_1a is 93.3 % of control (GpH7-A5/GpH7-B3/GpL16-k0 = 100).

The target of a further experiment is T2, FcγRIIb extracellular domain with …. The description is as above.
Consider B7, for which the He/Con_2b is 51.4 % of control (GpH7-A5/GpH7-B3/GpL16-k0 = 100).

For B8, the He/Con_2b is 54.8 % of control (GpH7-A5/GpH7-B3/GpL16-k0 = 100).

Take B9: the He/Con_2b was 70.4 % of control (GpH7-A5/GpH7-B3/GpL16-k0 = 100).

Regarding B10, the He/Con_2b was 50.7 % of control (GpH7-A5/GpH7-B3/GpL16-k0 = 100).

In the case of B11, the He/Con_2b was 73.2 % of control (GpH7-A5/GpH7-B3/GpL16-k0 = 100).
